Laboratory results as given in patent US20130130268A1 (published 2013).

B1: Vlambda16F4 rHumaab (antibody, human IgG1, V domains shown)
VH: GLVKPLETLSLTCSVSGGSVSDGSYFWNWIRQPPGKGLEWIGYAYSRGTTNYSPSLKGRITISVDKSKNQISLKLTSVTPADTAVYYCARDSFEIWGQGTMVTV
VL: QSALTQPASVSGSPGQSITISCTGTSSDVGGYNYVSWYQHHPGKAPKLMIYEVSHRPSGVSNRFSGSKSGNTASLTISGLQAEDEADYYCSSYTSSSHVVFGGGTKLTVL
notes: Tested as a whole human IgG1 made in CHO cells (pDR12 vector, b12 constant regions, with Fc)
B2: Vk13B8 rHumaab (antibody, human IgG1, V domains shown)
VH: B1 VH
VL: DIQMTQSPSSLSASVGDRVTITCRASQGISNYLAWFQQKPGKAPKSLIYAASSLQSGVPSKFSGSGSGTDFTLTISSLQPEDFATYYCQQYNSFPYTFGQGTKLEIK
notes: Tested as a whole human IgG1 made in CHO cells (pDR12 vector, constant regions of antibody b12, with Fc); also called Vκ13B8; recombinant human monoclonal auto-antibody Vk13B8
B3: Vk16F4 rHumaab (antibody, human IgG1, V domains shown)
VH: B1 VH
VL: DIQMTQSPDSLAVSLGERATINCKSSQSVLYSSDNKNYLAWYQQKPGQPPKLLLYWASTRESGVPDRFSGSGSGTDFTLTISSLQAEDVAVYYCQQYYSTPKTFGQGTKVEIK
notes: Tested as a whole human IgG1 made in CHO cells (pDR12 vector, b12 constant regions, with Fc); also called Vκ16F4; rHumaab VK16F4
B4: human PDGF-BB (ligand)
chain 1: SLGSLTIAEPAMIAECKTRTEVFEISRRLIDRTNANFLVWPPCVEVQRCSGCCNNRNVQCRPTQVQLRPVQVRKIEIVRKKPIFKKATVTLEDHLACKCETVAAARPVT
chain 2: B4 chain 1
notes: The name BB means a homodimer of B chains

Target: T1, His-tagged PDGFR alpha (aminoacids 1-834 of human PDGFR alpha fused to a 6×histidine tag) (human, UniProt P16234 24-834)
T1 construct: Complete extracellular and transmembrane regions plus part of the intracellular domain; Expressed in HeLa cells, purified from lysates and immobilized on the IAsys biosensor; The cDNA encodes residues 1-834; also called immobilized His-tagged PDGFR alpha; truncated conformer of PDGFR alpha
T1 sequence (P16234 other isoform, or with tags, fused parts or gaps): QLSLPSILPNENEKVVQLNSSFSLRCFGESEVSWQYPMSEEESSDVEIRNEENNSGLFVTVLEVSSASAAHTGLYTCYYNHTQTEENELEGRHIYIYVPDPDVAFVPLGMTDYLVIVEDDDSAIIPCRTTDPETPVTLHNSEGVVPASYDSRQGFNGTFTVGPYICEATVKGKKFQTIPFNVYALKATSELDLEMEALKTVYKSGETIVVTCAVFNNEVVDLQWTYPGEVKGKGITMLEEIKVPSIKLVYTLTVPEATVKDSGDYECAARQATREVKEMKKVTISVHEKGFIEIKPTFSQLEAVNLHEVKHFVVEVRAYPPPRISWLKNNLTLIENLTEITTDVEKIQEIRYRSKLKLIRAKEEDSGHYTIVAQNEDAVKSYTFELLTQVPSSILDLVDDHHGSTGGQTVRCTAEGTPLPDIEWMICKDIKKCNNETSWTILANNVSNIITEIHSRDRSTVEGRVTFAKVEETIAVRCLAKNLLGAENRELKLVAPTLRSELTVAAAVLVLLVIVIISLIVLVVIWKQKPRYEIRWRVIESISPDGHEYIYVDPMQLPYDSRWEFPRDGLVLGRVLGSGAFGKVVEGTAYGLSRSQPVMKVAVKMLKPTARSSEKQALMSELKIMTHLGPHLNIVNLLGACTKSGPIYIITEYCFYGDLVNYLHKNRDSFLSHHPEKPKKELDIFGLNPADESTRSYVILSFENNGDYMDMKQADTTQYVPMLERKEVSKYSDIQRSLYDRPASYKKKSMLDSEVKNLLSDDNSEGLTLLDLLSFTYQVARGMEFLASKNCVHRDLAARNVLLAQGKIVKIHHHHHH
Assay: IAsys optical biosensor, immobilized His-tagged PDGFR alpha
Experimental: A detailed characterization of rHumaab interaction with human PDGFR alpha was performed on an optical biosensor, using as a molecular bait a homemade truncated conformer of this receptor containing the complete extracellular and transmembrane regions joined to a poly-histidine tail (HIS tag) replacing part of the intracellular domain, and serving both as an anchor to the biosensor surface and as a spacer. Preservation of proper folding of the immobilized receptor into a naive-like conformation was verified by monitoring the interaction with its natural binding partner (PDGF-BB) and with two mouse monoclonal antibodies specific for conformational PDGFR alpha epitopes (FIG. 6a). Using this approach, both kinetics and equilibrium parameters of the interaction between PDGF-BB, each rHumaab and PDGFR alpha were determined. […] Additionally, the analysis of association and dissociation rate constants for soluble ligands binding to PDGFR alpha, further defined the mechanistic properties of the macromolecular recognition process. […] Conversely, differences in equilibrium constants among rHumaab were reflected by corresponding differences in dissociation rate constants (kdiss=, 0.035 s⁻¹, 0.02 s⁻¹, and 0.003 s⁻¹, respectively for Vk13B8, Vk16F4 and Vlambda16F4).

| Binder | Kd [nM] | koff [s⁻¹] | kon [M⁻¹ s⁻¹] |
| --- | --- | --- | --- |
| B1 | 16.6 | 0.003 |  |
| B2 | 184 | 0.035 |  |
| B3 | 71.4 | 0.02 |  |
| B4 | 0.23 |  | 3e+07 |
